Laboratory results taken from the nanobody polyreactivity screen of Harvey et al. (2022).

Experiment: yeast display, Sf9 membrane polyspecificity reagent, FACS + sequencing; frameworks hold sequencing errors
In short: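 Nanobodies came from a synthetic yeast display library in Saccharomyces cerevisiae BJ5465, induced with galactose for 36–48 hours and stained for 1 hour at 4 °C with 10% biotinylated, detergent-solubilized Sf9 membrane reagent. Cells were enriched on streptavidin microbeads and then FACS-sorted, with low and high (top ~1%) gates set on anti-HA fluorescence for expression and streptavidin fluorescence for reagent binding. Each polyreactivity label reflects the gate a clone came from. Genes were amplified by colony PCR, sequenced by MiSeq 2 × 250 and filtered by CDR length.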

Row | Sequence | polyreactivity (PSR sort gate)
1 | QVQLVESGGGLVQAGGSLRLSCAASGRIFRYYAMGWYRQAPGKERELVARITNGAITNYADSVKGRFTISRDNAKNTVYLQMNSLKPEDTAVYYCAADPWYTLSVPSGYDYWGQGTQVTVSS | high polyreactivity
2 | QVQLVESGGGLVQAGGSLRLSCAASGSIFEVDALGWYRQAPGKERELVAAITSSDITYYADSVKGRFTISRDHAKTTVYLQMNSLKPEDTAVYYCNGEPPYRVKRSDYWGQGTQVTVSS | low polyreactivity
3 | QVQLVESGGGLVQAGGSLRLSCAASGSTFDYYAMGWSRQAPGKERELVAGITGGGSTYYADSVKGRFTISRDNAKNTVYLQMNSLKPEDTAVYYCNAGPALRYDYWGQGTQVTVSS | low polyreactivity
4 | QVQLVESGGGLVQAGGSLRLSFAASGLTFYTNAMGWYRQAPGKETELVATITSGGRTSYADSVKGRFTISRDNAKNTVYLEMNRLKPEDTAVYYCADTTGWYGARYGYWGQGTQVTVSS | high polyreactivity
5 | QVQLVESGGGLVQAGGSLRLSCAASGRTFGWYAMGWYRQAPGKEREFVASINTIGGSTYYADSVKGRFTISRDNAKNTVYLQMNSLKPEDTAVYYCAAVGYVIPYDSVGYTTTDYYWGQGTQVTVSS | low polyreactivity
6 | QVQLVESGGGLGQAGGSLRLSCAASGSIFYRYAMGWYRKAPGKERELVAAITRRGARTYYADSVKGRFTISRDNAKNTVYLQLNSLKPEDTAVYYCAATYYYWTGWRYVRGDYWGQGTQVTVSS | high polyreactivity
7 | QVQLVESGGGLVQAGGSLRLSCAASGSTFEPNAMGWSRQEPGKERELVASITSSGGSTYYADSVKGRFTISRDNAKNTVYLQMKSLKPEDTAVYYCNARVPPQGWGPWKAFDYWGQGTQVTVSS | low polyreactivity
8 | QVQLVESGGGLVQEGGSLRLSCAASGSTSQYNDMGWYRQAPGKERELVAAITNCGSTNYADSVKGRFTISRDNAKNTVYLQMNSLKPEDTAVYSCNADYGQERPGYGYGYWGQGTQVTVSS | low polyreactivity
9 | QVQLVESGGGLVQAGGSLRLSCAASGFSFKSYAMGWYRQAPGKERELVAAISRGTSTKYADSVKGRFTISRDNAKNTVYLQMNSLKPEDTAVYNCAALFPTSDLRLRYYRYDYWGQGTQVTVSS | low polyreactivity
10 | QVQLVESGGGLVQAGGSLRLSCAASGFTFPYYAMGWYRPAPGKERELVAAISWIGDSTYYADSVKGRFTISRDNAKNTVYLQMNSLKPEDTAVYYCAAGYKWSIPNRDYDYWGQGTQVTVSS | low polyreactivity
11 | QVQLQESGCRLVQAGGRLRMSCAASGNIIDADIMGWYRQAPGKERELVASITDGRRTNYADSVKGRYTNSRDSEKNTVYMQMNSLKPEDTAVYYCAAIAYPVVPTYFDYDSDYFHWGQGTQVTVSS | high polyreactivity
12 | QVQLVESGGGLVQAGGSLRLSCAASGFIFRQYVMGWYRQAPGKERELVAAISWRTTSTYYADSVKGRFTISRDNAKNTVYLQMNSLKPEDTAVYYCAAPQVWWGYYTRGVDYWGQGTQVTVSS | low polyreactivity
13 | QVQLVESGGGLVQAGGSLRLSCAASGFTFRPYVMGCYRQAPGKERELVAGISTGGSTYYADSVKGRFTISRDNAKNTVYLQMNSLKPEDTAVYYCAKRGKQYRKMNYWGQGTQVTVSS | high polyreactivity
14 | QVQLVESGGGLVQAGGSLRLSCAASGRTFWVYAMGWYRQATGKERELVATISKSAGITSYADSVKGRFTFSRDNAKNTVYLQMNSLKPEDTAVFYCAADKSYRRVYYWGQGTQVTVSS | low polyreactivity
15 | QVQLVESGGGLVQAGGSLRLSCAASGRTFTYYAMGWYRQAPGKERELVAAITGRGGRTYYADSVKGRFTISRDIAKNTVYLQMNSLKREDTAVYYCATRDPYYSSEYTYGYWGQGTQVTVSS | high polyreactivity
16 | QVQLVESGGGLVQAGGSRRLRCAASGSIISSYALGWYRQAPGQEMEFVAAISTGGRTYYADSVKGRFTISRDNGKNTVYLQMNSLKPEDTAVYYCAADGPLPHKVGTHTLDYWGQGTQVTVSS | low polyreactivity
17 | QVQLVESGGGLVQAGGSLRLSCAASGIIFYRYTMGWYRQAPGKERELVAAISSRGGSTYYADSVKGRFTISRDNAKNTVYLQMNSLKPEDTAVYYWNARSKRTARYNYWGQGTQVTVSS | high polyreactivity
18 | QVQLVESGGGLVQAGGSLRLSCAASGIFDDNAMGWYRQAPGKEREFVAAITISDGTTYYADSVKGRFTISRDNAKNTVDLQMNSLKPEDTAVYYCAADATYFFVYPSVDWQPDIMGYWGQGTQVTVSS | low polyreactivity
19 | QVQHVDSGGGLVQARGTLRLSCSASGRNFGIYTMGWYRQPPVKERELVAAISWRGGSTYYADSVKGRFTISRDNAKNTVYFQLNSLKPEDTAVYYCGKTQPGWRPVRDQIRYGYWGQGTQVTVSA | high polyreactivity
20 | QVQLGESGGGLVQAGGSLRLSCAASGRTFDKNAMGWYRQAPGKERELVATISSGGSTYYADSVKGRFTISRDNAKNTVYLQMNSLKPEDTAVYYCNARGVRATRRRYGYWGQGTQVTVSS | low polyreactivity
21 | QVQLVESGGGLVQAGGSLRLSCAASGSIFTINAMGWYRQAPGKVRELVAAISWSGAPTYYADSVKGRFTISRDNAKNTVYLQMNSLTPEDTAVYYCATGYNYLDRNTGYVHRFDYWGQGTQVTVSS | low polyreactivity
22 | QVQLVESGGGLVQAGGSLRLSCAASVFNFIYYTMGWYRPAPGKERELVAAISWSGGGTYYADSVKGRFTISRDNAKNTVYLLMNRLKPEDTAVYYCAAYWYVSSRDFEYWGQGTQVTVSS | high polyreactivity

Row | Sequence | polyreactivity (PSR sort gate)
23 | QVQLVESGGGLVQAGGSLRLSCAASVRTFGGYAMGLYRQAPGKERELVAAITSDTGTNYADSVKGRFTISRDNAKNTVYLEMNSLKPEDTAVYYCAADTPYSYYLNIYWKGMDYWGQGTQVTVSS | low polyreactivity
24 | QVQLVETGGGLVQAGGSLRLSCAASGRTFWGHAMGWYRQAPRKERELVASISSRGSSTYYADSVKGRFTISRDNAKNTVYLQMNSLKPEDTAVYYCAARTHYFPWPWYVWDYDSWGQGTQVTVSS | low polyreactivity
25 | QVQLVESGGGLVQAGGSLRLSCAASGSIFEPNAMGWYSQAPGKERELVAAISWNDGDTYYADSVKGRFTISRDNAKNTVYLQMNSLKPEDTAVYYCAAETGYAFDYWGQGTQVTVSS | low polyreactivity
26 | QVQLVESGGGLVQAGGSLRLSCAASGSTLAFYAMGWYRQATGKQRELVAAISRSGGRTYYSDSVKGRFTISRDNAKNTVYLQMNSLKPEDTAVYYCAAYWYYYWWYDYWGQGTQVTVSS | high polyreactivity
27 | QVQLVESGGGLVQAGGSLRLSCAASGRTFRKYTMGWYRQAPGKERELVAASASRGGSTYYADSVKGRFTISRDNAKNTVYLQMNSLKPEDTAVYYCATDYITPSSDGDYWGQGTQVTVSS | high polyreactivity
28 | QVQLVESGGGLVQAGGSLRLSCAASGSTIYFYAMGWYRQAPGKERELVAAITWSGGRTYYADSVKGRFTISRDNAKNTVYLQMNSLKPEDTAVYYCAAVRPPLARLYVAAKRFDSWGQGTQVTVSS | low polyreactivity
29 | QVQLVESGGGLVQAGGSLRLSCAASGRIFRVNGMGWDRQAPGKERELVAAIRRSGGSTYYADSVKGRFTISRDNAKNTVYLQMNSLKPEDTAVYYCAAPVRQSSYTRYDSWGQGTQVTVSS | high polyreactivity
30 | QVQLVESGGGLVQAGGSLRLSCAASGSIFWYYGMGWYRQAPGKERELVAAISSGGSTNYADSVKVRFAISRDNAKNTVYLQMNSLKPEDTAVYYCAVRFTFPRYPASYSRYYYWGQGTQVTVSS | high polyreactivity
31 | QVQLVESGGGLVQAGGSLRLSCAASGIIFYAYAMGWYRQAPGKETELVAAITFSAVSTNYADSVKGRFTISRDYAKNTVYLQMNSLKPEDTAVYYCAAEAYKHGVWDYDYWGQGTQVTVSS | low polyreactivity
32 | QVHLVESGGGLVQAGGSLRLSCAASGSTIRAYAMGWNRQAHVKERELVAAISYSGDSTYYADSVKGRFTISRDNAKNTVYLQMNSLKPEDTAVYYCAADYSYRHYEYDYWGQGTQVSVSS | low polyreactivity
33 | QVQLVESWGGLVQAGGSLRISCAASGRISYGYAMGWYRQAPGKERELVAAISRSGGTTYYADSVKGRFTISRDNAKNTVYLQMNSLNPEDTAVYYCAAGDAYYTEALPFGDYDYWGQGTQVTVSS | low polyreactivity
34 | QVQLVESGGGLVQAGGSLRLSCAATGSTFHWYAMGWYRQAPGKATELVATITWSGGSTYYADSVKGRFTISRDNAKNTVYLQMNSLKPEDTAVYYCAAETYILLEYDYWGQGTQVTVSS | high polyreactivity
35 | QVQLVESVGGLVQAGGSLRLSCAASGFTFLWYAMGWYRQAPGKEWELVAAINSSGVRTYYADSVKGRFTISRDNAKNTVYLLMNSLKPEDTAVYYCAAYQKTYTEDEYWGQGTQVTVSS | high polyreactivity
36 | QVQLVESGGGLVQAGGSLRLSCAASGSTFGDNTMGWYRQAPGKERELVAAISRRGGSTYYADSVKGRFTISRDNAKNTVYLQMNSLKPEDTAVYYCADEWQQLGGPVYYWGQGTQVTVSS | high polyreactivity
37 | QVQLVESGGCLVQAGGSLRLSCAASGSIFTRYAMGWYRQAPGKERELVADIRWGGGDTYYADSVKGRFTISRDNAKNTVYLQMNSLKPEDTAVYYCNADFGAPNTGRPEVQNSDEFGYWGQGTQVTVSS | low polyreactivity
38 | QVQLVESGGGLVQAGGSLGLSCAASGFIFVRYAMGWYRQATGKERELVGAITSTGSTYYADSVKGRFTISRDKAKNTVYLQMNSLKPEDTAVYYCAAVSRTSITFGYYAEYDYWGQGTQVTVSS | low polyreactivity
39 | QVQLVESGGGLVQAGGSLRLSCAASGFIFGYNAMGWYRQAPGKERELVATISWSGGSTYYADSVKGRFTISRDNAKNTVYFQMNSLKPEDTAVYYCAAEGWERLGCVSWVTVDYWGQGTQVTVSS | low polyreactivity
40 | QVQLVESGGGLVQAGGSLRLSCAASGSTFDYNAMGWYRQAPGKERELVAAISSGSRTNYADSVKGRFTISRDNAKNTVYLQMNSLKPEDTAVYYCAAKAYFYRRTQSRFSLYYYWGQGTQVTVSS | high polyreactivity
41 | QVQLVESGGGLVQAGGSLRLSCAASGIIFYRNAMGWYRQAPGNERELVAAITSSGGRTYYADSVKGRFTISRDNAKNTVYLQMNSLKPEDTPVYYCAATRLYWKIFYGDGDYWGQGTQVTVSS | high polyreactivity
42 | QVQLVESGGGLVQAGGSLRLSCAPSGITFRSYAMGWYRQAPGKERELVATISWSGGITYYADSVKGRFTISRDNAKNTVYLQMNSLKPEDTAVYYCATASQSWGRDDYYYWGQGTQVTVSS | low polyreactivity
43 | QVQLVESGGGLVQAGGSLRLSCAASGRTFRVNAMGWYRQAPGKERELVASITYSGGSTYYADSVKGRFTISRDNAKNTVYLQMNSLKQEDTAVYYCAADWYRSPYDYWGQGTQVTVSS | low polyreactivity
